Biological target: PDZ domain of mouse SNX27 (mouse, UniProt Q3UHD6 41-134)
Experiment: ITC

B1: PTHR_(586-593) cargo peptide (peptide)
peptide: QEEWETVM
Kd: 0.7 µM
